Measurements reported in US20240252641A1 (published 2024).

T1: human CD70, recombinant, N-terminally biotinylated (residues 39-193) (human, UniProt P32970 39-193, N-terminal biotin)
T1 chain: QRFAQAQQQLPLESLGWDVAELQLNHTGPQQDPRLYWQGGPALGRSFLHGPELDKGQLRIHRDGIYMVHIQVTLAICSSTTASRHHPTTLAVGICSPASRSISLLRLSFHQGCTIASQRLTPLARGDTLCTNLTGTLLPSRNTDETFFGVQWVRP


Experiments:
[1] = biological target: T1, human CD70, recombinant, N-terminally …; test: Octet BLI steady-state
[2] = biological target: T1, human CD70, recombinant, N-terminally …; test: Octet BLI
41D12 (LwH) = test: Octet BLI

Row | Binder | Kd [1] | Kd [2] | also measured
1 | 39-TC6-IV-B08 (scFv) scFv: QVQLVESGGGVVQPGGSLRLSCAASGFTFSSYAMHWVRQAPGKGLEWVAVISYDGSNKYYADSVKGRFTISRDNSKNTLYLQMNSLRAEDTAVYYCARDGHPYYYGMDVWGQGTTVTVSSGGSGGSGGSGGSQSALTQPASVSGSPGQSITISCTGTSSDVGDYNYVSWYQHHPGKAPKLMIYDVSNRPSGVSNRFSGSKSGNTASLTISGLQAEDEADYYCGSYTGSDTWVFGGGTKVTVL | 41.7 nM |  | 
2 | R3P5A1 VHH (VHH) VHH: QVQLQESGGGLVQPGGSLRLSCTASGSIFSATRMEWYRQAPGKQRELVAIVTSGGRTNYADSVNGRFTISRDNAKNTLYLQMNNLKPEDTAVYYCKFERYDYVNYWGRGTQVTVSS |  | 0.025 nM | 
3 | R3aP9D10 VHH (VHH) VHH: QVQLQESGGGLVQAGGSLRLSCAAPGFTFDAYAIGWFRQAPGKEREGVICLSPSDGSTYYADSVKGRFTISSDNAKNTVYLQMNSLKPEDTAVYYCATPSWCSLKADFGSWGQGTQVTVSS |  | 0.036 nM | 
4 | 1-TC4-I-C10 (scFv) scFv: EVQLVQSGAEVKKPGESLKISCKGSGYSFTSYWIGWVRQMPGKGLEWMGIIYPGDSDTRYSPSFQGQVTISADKSISTAYLQWSSLKASDTAMYYCAISRTESYVMDVWGQGTTVTVSSGGSGGSGGSGGSQSALTQPRSVSGSPGQSVTISCTGTSSDVGGYNYVSWYQQHPGKAPKLMIYDVTNRPSGVPDRFSASKSDNTATLTVSGVQAEDEADYYCSSYAGSHELFGGGTKLTVL | 56.7 nM |  | 
5 | 50-TC7-III-A11 (scFv) scFv: QVQLVQSGAEVKRPGASVKVSCKASGYTFTSYYMHWVRQAPGQGLEWMGIINPSGGSTSYAQKFQGRVTMTRDTSTSTVYMELSSLRSEDTAVYYCAIEPGYCSGGSCYPDAFDIWGQGTTVTVSSGGSGGSGGSGGSQSVLTQPPSASGTPGQRVTISCSGSSSNIGSDYVYWYQRVPGTAPKLLIYRDNQRPSGVPDRFSGSKSGTSASLAISGLRSDDEADYYCAAWDDSLSGWVFGGGTKVTVL | 55.7 nM |  | 
6 | CD70 (ligand, N-terminal biotin) QRFAQAQQQLPLESLGWDVAELQLNHTGPQQDPRLYWQGGPALGRSFLHGPELDKGQLRIHRDGIYMVHIQVTLAICSSTTASRHHPTTLAVGICSPASRSISLLRLSFHQGCTIASQRLTPLARGDTLCTNLTGTLLPSRNTDETFFGVQWVRP |  |  | Kd (41D12 (LwH)): 0.001 nM
7 | R3aP3E8 VHH (VHH) VHH: QVQLQESGGGLVQPGGSLRLSCVASGSIFSIARMNWYRQAPGKQRELVAILNRAGRTDYADSVKGRFTISSDNAKTTVYLQMNSLKPEDTALYYCNLQTISYHDFWGQGTQVTVSS |  | 0.027 nM | 
8 | R3P3H12 VHH (VHH) VHH: QVQLQESGGGLVQTGGSLRLSCTASGSIFDIVRGSWYRQAPGNQRELVAIITSGGATNYADSVAGRFTISRDSAWKALYLQMNSLKPEDTAVYFCNMESVRYRNYWGQGTQVTVSS |  | 0.16 nM | 
9 | human CD27 fused to human Fc domain (Fc fusion) TPAPKSCPERHYWAQGKLCCQMCEPGTFLVKDCDQHRKAAQCDPCIPGVSFSPDHHTRPHCESCRHCNSGLLVRNCTITANAECACRNGWQCRDKECTECDPLPNPSLTARSSQALSPHPQPTHLPYVSEMLEARTAGHMQTLADFRQLPARTLSTHWPPQRSLCSSDFIRI |  | 1.7 nM | 
